B1: Azoarcus group I ribozyme (parent)
chain: GUGCCUUGCGCCGGGAAACCACGCAAGGGAUGGUGUCAAAUUCGGCGAAACCUAAGCGCCCGCCCGGGCGUAUGGCAACGCCGAGCCAAGCUUCGGCGCCUGCGCCGAUGAAGGUGUAGAGACUAGACGGCACCCACCUAAGGCAAACGCUAUGGUGAAGGCAUAGUCCAGGGAGUGGCGAAAGUCACACAAACCGG

The variants in this series derive from B1. Put plainly: reverse-splicing fitness (ratio to wild type); higher = more active; in vitro selection; Mg2+ level not given. The essentials: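 An in vitro group I ribozyme library with randomized positions was T7-transcribed and gel-purified. In triplicate, 10 pmol RNA in EPPS pH 7.5 was reacted with 50 pmoles of a 30-nt RNA substrate for 1 h at 37 °C across several added MgCl2 levels (1–48 mM), then stopped with EDTA. Products were reverse transcribed from a substrate-complementary primer, PCR-amplified and sequenced (HiSeq 4000). Fitness is a variant's read proportion after selection over that before, normalised to wild type.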
In the case of C82G A111G A120U A145U C150G U176C, the reverse-splicing fitness came out at 0.00556. For C82G A120C C150U C169G U176A the value was 0.0141; for C82G A111C A120U A145C C150U U176G, 0.00325; for C82G A111C A120C A145G C150G C169A, 0.00885. The figure for C82G A111U C150A U176G is 0.0138; for A111U A145C C150A C169G U176C it is 0.0127; for A111G A120G A145U C150A it is 0.0301. The figure for A111C A120G A145C C169G U176G is 0.00459; for A111G A120U C169U it is 0.144.

As to C82G A111C C150A C169G U176G, the reverse-splicing fitness was found to be 0.00931. Take C82G A111C A120C A145C C169G: the reverse-splicing fitness is 0.00843. On to C82A A111C A120U A145U C150U C169A U176G, for which the reverse-splicing fitness is 0.00295. For A111U A120C A145C C169G the value was 0.00891. For C82U A120U A145C C150U C169U U176G the value was 0.0015.

For A111G A145C C150G C169U U176C, the reverse-splicing fitness is 0.0138. In the case of C82G A111U A145U C150G U176A, the reverse-splicing fitness was 0.0141. The figure for C82U A120C A145U C150G U176C is 0.0134. The figure for A111U A120C A145C C150U C169G U176C is 0.00958. On to C82A A111U A120U A145U C169G U176G, for which the reverse-splicing fitness was 0.00199. For C82A A111C A120G A145G C150U C169G U176G the value was 0.00582; for A120C C150A C169G U176A, 0.0161; for C82U A111C A145G C150A C169G, 0.00813.

Consider C82U A120G C150G C169G U176G, for which the reverse-splicing fitness is 0.00357. In the case of C82A A120G A145U C150G C169U U176C, the reverse-splicing fitness stood at 0.0127.

Turning to C82U A120G A145C U176G, the reverse-splicing fitness worked out at 0.00356. For C82A A120C A145C C150U C169U U176A the value was 0.0127; for A111C A120G A145G C169G, 0.227; for C82A A111C A120C A145G C150A C169U U176G, 0.00795. For C82U A111G A120U A145C C150A C169G U176G the value was 0.0017. For C82G A111G A120U A145C C150G C169G the value was 0.0027; for C82G A111C A145C C150G C169G U176G, 0.00664; for A111U A120C A145G C150U C169U U176G, 0.0053.

C82A A111G A120G A145C C150U C169U U176C: the reverse-splicing fitness was determined as 0.0113. As for A111U A120C A145G C169A, the reverse-splicing fitness was found to be 0.0121. The figure for A111G A145U C150G C169G U176C is 0.00501; for C82A A120U C150U C169G U176A it is 0.00534; for C82G A120G A145C C150A C169U it is 0.00751.

Consider C82U A111C A120C A145U C169G, for which the reverse-splicing fitness stood at 0.00753. The figure for C82U A111C A120C A145G C150G C169A U176C is 0.0116; for A111U A120C C150U C169U U176A it is 0.0292.

For A111U A120G A145U C150U U176C, the reverse-splicing fitness is 0.0388. For A111C A120C C150G the value was 0.0496; for C82A A111C A120U A145C C150U C169G U176C, 0.00264.

As for C82A A111G C150G C169A U176G, the reverse-splicing fitness came to 0.00753. The figure for C82U A111C A145G C150U U176A is 0.0576. The figure for C82A A145C C150U C169U is 0.0111; for C82A A120C A145G C169U U176C it is 0.0162; for C82G A111C A120C A145C C150U C169G it is 0.00697. For A111C A120G A145U C150G C169G U176C the value was 0.00574.

With C82G A120G C150G C169U, the reverse-splicing fitness turned out to be 0.00956. On to C82G A111G A120C A145G C150A C169G U176G, for which the reverse-splicing fitness was found to be 0.00696. The figure for C82G A111C A145C C150A U176A is 0.0144. For C82G A120U A145C C150U C169U U176A the value was 0.00246. For A111U A120G A145U C150A C169G U176C the value was 0.0194; for A111G A120G A145C C169U, 0.219; for C82G A111U A145C C150U C169G U176C, 0.0132. On to C82U A111G A120G A145G C169A U176G, for which the reverse-splicing fitness was determined as 0.00377.

C82A A111C A145U: the reverse-splicing fitness came to 0.229. For C82G A111U A120G C169G, the reverse-splicing fitness is 0.014.

For the variant A111G A120C A145G C150U C169A U176C, the reverse-splicing fitness came out at 0.0149. On to C82A A111C A120C A145G, for which the reverse-splicing fitness stood at 0.0258.

For the variant C82G A111U A145C C169G, the reverse-splicing fitness is 0.00826. The figure for C82G A111U A120C A145C C150A U176C is 0.0127; for A120G A145C C169U U176A it is 0.181. For C82U A145U C169A U176A the value was 0.00693; for C82U A111G A120U C150U C169U, 0.00388. As to A111G A120C A145U C150G C169U, the reverse-splicing fitness was found to be 0.0352. On to C82U A120G A145C C150U U176A, for which the reverse-splicing fitness is 0.00845. The figure for A111C A120U A145U C150A C169A U176C is 0.00244. For C82G A111U A120C C150U C169A U176G the value was 0.00644; for A111G A145U C150U C169A U176G, 0.00557. The figure for C82A A111U A120C A145C U176C is 0.0202; for A111G C150G C169G it is 0.0138.

With C82U A111C A120U A145C C150A C169G U176C, the reverse-splicing fitness is 0.00318. For C82G A111C A145U C169G U176A the value was 0.014; for C82A A111U A120G A145U C169G U176G, 0.00437; for C82U A111C A120U C150A C169U U176C, 0.0037. For C82A A111U A120U A145G C150U C169G U176G the value was 0.00271. For A120G the value was 0.549; for A111G A120C A145G C150G U176C, 0.0262. On to A145G C169U, for which the reverse-splicing fitness was 0.369. As to C82A A111U A145G C150U U176A, the reverse-splicing fitness came out at 0.0694.

Consider C82G A111U A120C A145C C150A C169A U176G, for which the reverse-splicing fitness came to 0.00706.
